This test concerns the target Tyrosine hydroxylase, wild-type (hTH1) (human) (UniProt P07101). In words: BLI; biotinylated TH or TH variant immobilised on streptavidin sensors; DNAJC12 or variant 0.01-4 μM in solution; PBS, 0.02% Tween-20, 0.5 mg/mL BSA, 25 °C; responses fitted to a one-site hyperbola.

DNAJC12(1-107), sequence (Q9UKB3 1-107): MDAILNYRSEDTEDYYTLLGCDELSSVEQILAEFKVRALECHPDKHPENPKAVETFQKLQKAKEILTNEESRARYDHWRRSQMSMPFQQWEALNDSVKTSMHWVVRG

Broadly, the Kd is the free concentration of one partner at which half of the binding sites on the other are occupied at equilibrium, for simple one-to-one binding. “DNAJC12(1-107) (from UniProt Q9UKB3-1 1-107) (domain or fragment)”: the Kd is 3.99 µM.
